Measured values: patent publication US20200369755A1 (PROTHENA BIOSCIENCES, published 2020)
Where no end group is shown, it is not given here.

Assays:
[1] = biological target: T1, tau peptide NVKSKIGSTENLKHQPG (SEQ ID NO:184) (human); experiment: peptide microarray, 3D6 at 10 ug/ml
T1 construct: Printed on a microarray together with all its single substitution variants; also called probe peptide
T1 peptide: NVKSKIGSTENLKHQPG
Procedure: The assay exchanged each of the amino acids in the peptide sequence with all 20 amino acids, to determine with a high degree of accuracy the core epitope for 3D6. The microarray was printed with all peptides in triplicate, along with HA control peptides to ensure assay performance. To perform the assay, the array was incubated with 3D6 (10 ug/ml) in blocking buffer, washed with PBS-T, followed by incubation with a goat anti-mouse secondary antibody conjugated to DyLight-680. In addition, the microarray was incubated with anti-HA antibody 12CA5 directly conjugated to DyLight-800. Microarrays were scanned using a LiCor scanner, and intensities of triplicates were averaged.

[2] = biological target: biotinylated recombinant tau (UniProt P10636-6 1-383, limits assumed, biotinylated); experiment: competition ELISA: inhibition of biotinylated tau binding to plate-bound low molecular weight heparin
Procedure: To test the ability of murine and humanized 3D6 variants to interrupt tau interaction with heparin, ELISA plates coated with low molecular weight heparin were first blocked with 2% BSA in PBS for 2h at room temperature. Plates were washed with TBST. After blocking, plates were incubated with biotinylated recombinant tau along with indicated concentrations of unlabeled antibody in 1% BSA/PBS for one hour at room temperature. Plates were again washed, and then incubated with streptavidin-HRP in 0.1% BSA/PBS for 45 min. Plates were then washed and developed with OPD, and absorbance was measured at 490 nm. Inhibition curves were analyzed using a 4-parameter log fit.

[3] = biological target: T2, 10-24 (also: biotinylated (site not given here)); experiment: peptide ELISA, biotinylated peptide on streptavidin plate; background-subtracted absorbance; positive from 0.2
T2 construct: also called tau peptide 10-24 (4R0N numbering)
T2 peptide: VMEDHAGTYGLGDRK
Procedure: (§1) Additional peptides were used to model potential post-translational modifications of the C- and N-terminal ends of the protein.
(§2) Biotinylated peptides were bound to separate wells of a streptavidin-coated ELISA plate. The plate was blocked and treated with murine 3D6, followed by incubation with a horseradish peroxidase-conjugated anti-mouse antibody. After thorough washing, OPD was applied to the plate and allowed to develop. The plate was read at 450 nm absorbance. Background subtraction was performed with absorbance values from wells containing no primary antibody, and a threshold for positive binding was set to 0.2 absorbance units. […] (FIG. 1)

[4] = biological target: T3, 334-348 (also: biotinylated, site not given here); experiment: as above
T3 construct: also called tau peptide 334-348 (4R0N numbering)
T3 peptide: IVYKSPVVSGDTSPR
Procedure: as §1, §2

[5] = biological target: T4, 271-285 (also: biotinylated, site not given here); experiment: as above
T4 peptide: HHKPGGGQVEVKSEK
Procedure: as §1, §2

[6] = biological target: T5, 136-150 (also: biotinylated, site not given here); experiment: as above
T5 construct: also called tau peptide 136-150 (4R0N numbering)
T5 peptide: RSGYSSPGSPGTPGS
Procedure: as §1, §2

biotinylated recombinant tau, sequence (P10636 other isoform, or with tags, fused parts or gaps limits assumed): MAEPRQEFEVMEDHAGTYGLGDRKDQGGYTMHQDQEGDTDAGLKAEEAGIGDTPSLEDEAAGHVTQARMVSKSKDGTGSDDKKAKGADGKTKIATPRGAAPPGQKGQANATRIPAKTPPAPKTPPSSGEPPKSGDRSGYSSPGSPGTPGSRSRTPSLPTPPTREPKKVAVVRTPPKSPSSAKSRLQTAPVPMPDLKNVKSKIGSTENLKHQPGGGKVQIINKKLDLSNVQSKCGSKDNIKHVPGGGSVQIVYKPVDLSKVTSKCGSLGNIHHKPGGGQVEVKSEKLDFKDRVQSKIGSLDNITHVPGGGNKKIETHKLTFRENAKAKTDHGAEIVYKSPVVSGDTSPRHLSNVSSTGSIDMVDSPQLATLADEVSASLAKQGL

binding result [1]: binds
IC50 [2]: 0.409 nM
binding result [3]: no binding
binding result [4]: no binding
binding result [5]: no binding
binding result [6]: no binding
B1: murine 3D6 monoclonal antibody (antibody, IgG1, V domains shown)
VH: EVQLQQSGADLVRPGALVKLSCKASGFNIKDYYLHWVRQRPEQGLEWIGWIDPENGDTVYDPKFQGKATITADTSSNTAYLQLGSLTSEDTAVYFCSTLDFWGQGTTLTVSS
VL: not shown
notes: Hybridoma-derived mouse antibody; also called m3D6; mouse 3D6
